Reference: paper PMC9354405

Molecular target: HBV S/preS1^16-42 chimeric antigen (Hepatitis B virus, genotype D) (UniProt P03138)
Test: SDS-PAGE under non-reducing conditions with western blot; lysates of transfected HEK293T cells, -DTT, detected with anti-preS1 antibodies; dimers of ~50 kDa held by intermolecular disulfide bonds

“HBV S/preS1^16-42 chimeric antigen (from UniProt P03138 16-42)” showed a stoichiometry N of 2.
